Experimental findings from PMC6136348, “In the quest for new targets for pathogen eradication: the adenylosuccinate synthetase from the bacterium Helicobacter pylori” (Journal of Enzyme Inhibition and Medicinal Chemistry, 2018) are described below.

Substrate in series [1]: Nc1nc2c(ncn2[C@@H]2O[C@H](COP(=O)(O)OP(=O)(O)OP(=O)(O)O)[C@@H](O)[C@H]2O)c(=O)[nH]1
Briefly: Michaelis-Menten kinetics of the purified enzyme (Km). Type of series: biochemical, Helicobacter pylori. Particulars: Mg2+.

Substrate in series [2]: N[C@@H](CC(=O)O)C(=O)O
The series is described as above. Particulars: Mg2+. Type of series: biochemical, Helicobacter pylori.

B1: adenylosuccinate synthetase (AdSS) (Helicobacter pylori 26695) (protein)
chain: MADVVVGIQWGDEGKGKIVDRIAKDYDFVVRYQGGHNAGHTIVHKGVKHSLHLMPSGVLYPKCKNIISSAVVVSVKDLCEEISAFEDLENRLFVSDRAHVILPYHAKKDAFKEKSQNIGTTKKGIGPCYEDKMARSGIRMGDLLDDKILEEKLNAHFKAIEPFKKAYDLGENYEKDLMGYFKTYAPKICPFIKDTTSMLIEANQKGEKILLEGAQGTLLDIDLGTYPFVTSSNTTSASACVSTGLNPKAINEVIGITKAYSTRVGNGPFPSEDTTPMGDHLRTKGAEFGTTTKRPRRCGWLDLVALKYACALNGCTQLALMKLDVLDGIDAIKVCVAYERKGERLEIFPSDLKDCVPIYQTFKGWEKSVGVRKLDDLEPNVREYIRFIEKEVGVKIRLISTSPEREDTIFL
notes: recombinant protein expressed from pET21b-HPpurA
B1: in series [1], the Km came out at 8.7 ± 0.6 µM and the Vmax worked out at 1.42 µmol/min/mg. Further, in series [2], the Km turned out to be 125.4 ± 7.7 µM and the maximum rate (Vmax) turned out to be 1.1 µmol/min/mg.
